16 molecules from US20190119358A1 can be followed below.

To fix the notation:
B1: R4122 (peptide)
peptide: Ac-[Nva]CY[Tle]A[Orn](Acryloyl)[NMeA][Phg][Trp(7-aza)]Y[NMePhe(4-F)][Sar]C-NH2
modifications: linker 2-13 via mXylylene
SMILES: C=CC(=O)NCCC[C@@H]1NC(=O)[C@H](C)NC(=O)[C@H](C(C)(C)C)NC(=O)[C@H](Cc2ccc(O)cc2)NC(=O)[C@@H](NC(=O)[C@H](CCC)NC(C)=O)CSCc2cccc(c2)CSC[C@@H](C(N)=O)NC(=O)CN(C)C(=O)[C@H](Cc2ccc(F)cc2)N(C)C(=O)[C@H](Cc2ccc(O)cc2)NC(=O)[C@H](Cc2c[nH]c3ncccc23)NC(=O)[C@H](c2ccccc2)NC(=O)[C@H](C)N(C)C1=O
B2: R4121 (peptide)
peptide: Ac-[Nva]CY[Tle]KH[NMeA][dPhg][Trp(7-aza)]Y[NMePhe(4-F)][NMeA]C-NH2
modifications: linker 2-13 via mXylylene
SMILES: CCC[C@H](NC(C)=O)C(=O)N[C@H]1CSCc2cccc(c2)CSC[C@@H](C(N)=O)NC(=O)[C@H](C)N(C)C(=O)[C@H](Cc2ccc(F)cc2)N(C)C(=O)[C@H](Cc2ccc(O)cc2)NC(=O)[C@H](Cc2c[nH]c3ncccc23)NC(=O)[C@@H](c2ccccc2)NC(=O)[C@H](C)N(C)C(=O)[C@H](Cc2c[nH]cn2)NC(=O)[C@H](CCCCN)NC(=O)[C@H](C(C)(C)C)NC(=O)[C@H](Cc2ccc(O)cc2)NC1=O
B3: R4130 (peptide)
peptide: cyclo([AEEA]Y[Tle]KH[NMeA][Phg][Trp(7-aza)]Y[NMePhe(4-F)][Sar][Pra])
SMILES: C#CC[C@@H]1NC(=O)CN(C)C(=O)[C@H](Cc2ccc(F)cc2)N(C)C(=O)[C@H](Cc2ccc(O)cc2)NC(=O)[C@H](Cc2c[nH]c3ncccc23)NC(=O)[C@H](c2ccccc2)NC(=O)[C@H](C)N(C)C(=O)[C@H](Cc2c[nH]cn2)NC(=O)[C@H](CCCCN)NC(=O)[C@H](C(C)(C)C)NC(=O)[C@H](Cc2ccc(O)cc2)NC(=O)COCCOCCNC1=O
B4: R4123 (peptide)
peptide: Ac-[Nva]CY[Tle]AK(Acryloyl)[NMeA][Phg][Trp(7-aza)]Y[NMePhe(4-F)][Sar]C-NH2
modifications: linker 2-13 via mXylylene
SMILES: C=CC(=O)NCCCC[C@@H]1NC(=O)[C@H](C)NC(=O)[C@H](C(C)(C)C)NC(=O)[C@H](Cc2ccc(O)cc2)NC(=O)[C@@H](NC(=O)[C@H](CCC)NC(C)=O)CSCc2cccc(c2)CSC[C@@H](C(N)=O)NC(=O)CN(C)C(=O)[C@H](Cc2ccc(F)cc2)N(C)C(=O)[C@H](Cc2ccc(O)cc2)NC(=O)[C@H](Cc2c[nH]c3ncccc23)NC(=O)[C@H](c2ccccc2)NC(=O)[C@H](C)N(C)C1=O
B5: R4125 (peptide)
peptide: Ac-[Nva]CY[Tle]AH[NMeK][Phg][Trp(7-aza)]Y[NMePhe(4-F)][Sar]C-NH2
modifications: linker 2-13 via mXylylene
SMILES: CCC[C@H](NC(C)=O)C(=O)N[C@H]1CSCc2cccc(c2)CSC[C@@H](C(N)=O)NC(=O)CN(C)C(=O)[C@H](Cc2ccc(F)cc2)N(C)C(=O)[C@H](Cc2ccc(O)cc2)NC(=O)[C@H](Cc2c[nH]c3ncccc23)NC(=O)[C@H](c2ccccc2)NC(=O)[C@H](CCCCN)N(C)C(=O)[C@H](Cc2c[nH]cn2)NC(=O)[C@H](C)NC(=O)[C@H](C(C)(C)C)NC(=O)[C@H](Cc2ccc(O)cc2)NC1=O
B6: R4120 (peptide)
peptide: Ac-[Nva]CY[Tle]KH[NMeA][Phg][Trp(7-aza)]Y[NMePhe(4-F)][Sar]CGGGCAIL-NH2
modifications: linker 2-13 via mXylylene
SMILES: CCC[C@H](NC(C)=O)C(=O)N[C@H]1CSCc2cccc(c2)CSC[C@@H](C(=O)NCC(=O)NCC(=O)NCC(=O)N[C@@H](CS)C(=O)N[C@@H](C)C(=O)N[C@H](C(=O)N[C@@H](CC(C)C)C(N)=O)[C@@H](C)CC)NC(=O)CN(C)C(=O)[C@H](Cc2ccc(F)cc2)N(C)C(=O)[C@H](Cc2ccc(O)cc2)NC(=O)[C@H](Cc2c[nH]c3ncccc23)NC(=O)[C@H](c2ccccc2)NC(=O)[C@H](C)N(C)C(=O)[C@H](Cc2c[nH]cn2)NC(=O)[C@H](CCCCN)NC(=O)[C@H](C(C)(C)C)NC(=O)[C@H](Cc2ccc(O)cc2)NC1=O
B7: R4124 (peptide)
peptide: cyclo([PEG2]Y[Tle]KH[NMeA][Phg][Trp(7-aza)]Y[NMePhe(4-F)][Sar])
SMILES: C[C@H]1C(=O)N[C@@H](c2ccccc2)C(=O)N[C@@H](Cc2c[nH]c3ncccc23)C(=O)N[C@@H](Cc2ccc(O)cc2)C(=O)N(C)[C@@H](Cc2ccc(F)cc2)C(=O)N(C)CC(=O)NCCOCCOCCC(=O)N[C@@H](Cc2ccc(O)cc2)C(=O)N[C@@H](C(C)(C)C)C(=O)N[C@@H](CCCCN)C(=O)N[C@@H](Cc2c[nH]cn2)C(=O)N1C
B8: R4127 (peptide)
peptide: Ac-[Nva]CY[Tle]KH[NMeA][Phg][Trp(7-aza)]Y[NMePhe(4-F)][Sar]CGGGCVIM-NH2
modifications: linker 2-13 via mXylylene
SMILES: CCC[C@H](NC(C)=O)C(=O)N[C@H]1CSCc2cccc(c2)CSC[C@@H](C(=O)NCC(=O)NCC(=O)NCC(=O)N[C@@H](CS)C(=O)N[C@H](C(=O)N[C@H](C(=O)N[C@@H](CCSC)C(N)=O)[C@@H](C)CC)C(C)C)NC(=O)CN(C)C(=O)[C@H](Cc2ccc(F)cc2)N(C)C(=O)[C@H](Cc2ccc(O)cc2)NC(=O)[C@H](Cc2c[nH]c3ncccc23)NC(=O)[C@H](c2ccccc2)NC(=O)[C@H](C)N(C)C(=O)[C@H](Cc2c[nH]cn2)NC(=O)[C@H](CCCCN)NC(=O)[C@H](C(C)(C)C)NC(=O)[C@H](Cc2ccc(O)cc2)NC1=O
B9: R4128 (peptide)
peptide: cyclo([Ava]Y[Tle]KH[NMeA][Phg][Trp(7-aza)]Y[NMePhe(4-F)][Sar][Pra])
SMILES: C#CC[C@@H]1NC(=O)CN(C)C(=O)[C@H](Cc2ccc(F)cc2)N(C)C(=O)[C@H](Cc2ccc(O)cc2)NC(=O)[C@H](Cc2c[nH]c3ncccc23)NC(=O)[C@H](c2ccccc2)NC(=O)[C@H](C)N(C)C(=O)[C@H](Cc2c[nH]cn2)NC(=O)[C@H](CCCCN)NC(=O)[C@H](C(C)(C)C)NC(=O)[C@H](Cc2ccc(O)cc2)NC(=O)CCCCNC1=O
B10: R4126 (peptide)
peptide: Ac-[Nva]CY[Tle]KA[NMeA][Phg][Trp(7-aza)]Y[NMePhe(4-F)][Sar]C-NH2
modifications: linker 2-13 via mXylylene
SMILES: CCC[C@H](NC(C)=O)C(=O)N[C@H]1CSCc2cccc(c2)CSC[C@@H](C(N)=O)NC(=O)CN(C)C(=O)[C@H](Cc2ccc(F)cc2)N(C)C(=O)[C@H](Cc2ccc(O)cc2)NC(=O)[C@H](Cc2c[nH]c3ncccc23)NC(=O)[C@H](c2ccccc2)NC(=O)[C@H](C)N(C)C(=O)[C@H](C)NC(=O)[C@H](CCCCN)NC(=O)[C@H](C(C)(C)C)NC(=O)[C@H](Cc2ccc(O)cc2)NC1=O
B11: R4133 (peptide)
peptide: Ac-[Nva]CY[Tle]AH[NMeK](Acryloyl)[Phg][Trp(7-aza)]Y[NMePhe(4-F)][Sar]C-NH2
modifications: linker 2-13 via mXylylene
SMILES: C=CC(=O)NCCCC[C@H]1C(=O)N[C@@H](c2ccccc2)C(=O)N[C@@H](Cc2c[nH]c3ncccc23)C(=O)N[C@@H](Cc2ccc(O)cc2)C(=O)N(C)[C@@H](Cc2ccc(F)cc2)C(=O)N(C)CC(=O)N[C@H](C(N)=O)CSCc2cccc(c2)CSC[C@H](NC(=O)[C@H](CCC)NC(C)=O)C(=O)N[C@@H](Cc2ccc(O)cc2)C(=O)N[C@@H](C(C)(C)C)C(=O)N[C@@H](C)C(=O)N[C@@H](Cc2c[nH]cn2)C(=O)N1C
B12: R4132 (peptide)
peptide: Ac-[Nva]CY[Tle]KH[NMeS][Phg][Trp(7-aza)]Y[NMePhe(4-F)][Sar]C-NH2
modifications: linker 2-13 via mXylylene
SMILES: CCC[C@H](NC(C)=O)C(=O)N[C@H]1CSCc2cccc(c2)CSC[C@@H](C(N)=O)NC(=O)CN(C)C(=O)[C@H](Cc2ccc(F)cc2)N(C)C(=O)[C@H](Cc2ccc(O)cc2)NC(=O)[C@H](Cc2c[nH]c3ncccc23)NC(=O)[C@H](c2ccccc2)NC(=O)[C@H](CO)N(C)C(=O)[C@H](Cc2c[nH]cn2)NC(=O)[C@H](CCCCN)NC(=O)[C@H](C(C)(C)C)NC(=O)[C@H](Cc2ccc(O)cc2)NC1=O

*1 amine or outer side, *2 acyl side, *3 side chain or, on linkers, in order; H or OH if unused. Bridges are numbered along the chain shown (N, C = ends). Where no end group is shown, it is not given here. [ ]: non-standard residue; d: D form. The star is where a group is joined. Trp(7-aza) = N[C@@H](Cc1c[nH]c2ncccc12)C(=O)O; NMePhe(4-F) = CN[C@@H](Cc1ccc(F)cc1)C(=O)O; ivDde = CC(C)CC(=C1C(=O)CC(C)(C)CC1=O)*; mXylylene = c1cc(C[*:1])cc(C[*:2])c1; NMeY = CN[C@@H](Cc1ccc(O)cc1)C(=O)O; dPhg = N[C@@H](C(=O)O)c1ccccc1; NMeK = CN[C@@H](CCCCN)C(=O)O; Phg = N[C@H](C(=O)O)c1ccccc1; Tle = CC(C)(C)[C@H](N)C(=O)O; NMeS = CN[C@@H](CO)C(=O)O; NMeA = CN[C@@H](C)C(=O)O; Orn = NCCC[C@H](N)C(=O)O; Pra = C#CC[C@H](N)C(=O)O; Nva = CCC[C@H](N)C(=O)O; PEG2 = NCCOCCOCCC(=O)O; AEEA = NCCOCCOCC(=O)O; Acryloyl = C=CC(=O)*; Ava = NCCCCC(=O)O; Sar = CNCC(=O)O

This assay has as its target GMPPNP-loaded H-Ras or GTP-loaded K-Ras. The assay can be described thus: FP competition, displacement of probe R4007 from Ras.
B1 registered a concentration for half-maximal inhibition (IC50) of 77.1 nM.
The same measure for B2: 73 nM; for B3: 268 nM.
Next, B4: 85 nM; B5: 110 nM.
The same measure for B6: 65.7 nM.
Consider B7, for which the IC50 was found to be 88.4 nM.
The same measure for B8: 148 nM; for Ac-[Nva]C[NMeY][Tle]KH[NMeA][Phg][Trp(7-aza)]Y[NMePhe(4-F)][Sar]C[dS][dA]K[Cys(StBu)]VIM (linker 2-13 via mXylylene) [R4129]: 227 nM; for Ac-[Nva]CY[Tle]K(4‑(dimethylamino)benzoyl)H[NMeA][Phg][Trp(7-aza)]Y[NMePhe(4-F)][Sar]C-NH2 (linker 2-13 via mXylylene) [R4134]: 346 nM.
Next, B9: 215 nM.
The same measure for Ac-[Nva]CY[Tle]KH[NMeA][Phg][Trp(7-aza)]Y[NMePhe(4-F)][Sar]CGGGCVIM (linker 2-13 via mXylylene) [R4131]: 278 nM; for B10: 127 nM; for B11: 342 nM.
For the molecule B12, the IC50 was found to be 281 nM.
The same measure for Ac-[Nva]CY[Tle]K(ivDde)H[NMeA][Phg][Trp(7-aza)]Y[NMePhe(4-F)][Sar]C (linker 2-13 via m‑xylylene) [R4135]: 364 nM.
